The subject of one assay is GFP-14-3-3β. The experiment in a line: GFP-14-3-3β co-IP with LC-MS/MS, untreated GFP-14-3-3β versus GFP control (14-3-3 interactome). The class given is binding, human.
Assay [1] concerns GFP-14-3-3β and its binding proteins. The experiment in a line: GFP-14-3-3β co-IP with LC-MS/MS label-free quantification, untreated versus PP1c-treated. Also noted: species or system human.
Setting [2] is: untreated vs GFP, LFQ intensities, replicates 1-3.
[3] abbreviates: PP1 vs untreated, LFQ intensities, replicates 1-3.

B1: ZC3H18 (protein, UniProt Q86VM9 1-953, looked up)
Zinc finger CCCH …: MDVAESPERDPHSPEDEEQPQGLSDDDILRDSGSDQDLDGAGVRASDLEDEESAARGPSQEEEDNHSDEEDRASEPKSQDQDSEVNELSRGPTSSPCEEEGDEGEEDRTSDLRDEASSVTRELDEHELDYDEEVPEEPAPAVQEDEAEKAGAEDDEEKGEGTPREEGKAGVQSVGEKESLEAAKEKKKEDDDGEIDDGEIDDDDLEEGEVKDPSDRKVRPRPTCRFFMKGNCTWGMNCRFIHPGVNDKGNYSLITKADPFPPNGAPPLGPHPLMPANPWGGPVVDEILPPPPPEPPTESAWERGLRHAKEVLKKATIRKEQEPDFEEKRFTVTIGEDEREFDKENEVFRDWNSRIPRDVRDTVLEPYADPYYDYEIERFWRGGQYENFRVQYTETEPYHNYRERERERERENRQRERERERERDRERERRQRERERERERERDKERQRRKEEWERERAKRDEKDRQHRDRDREKEREKEKGKPKPRSPQPPSRQAEPPKKEAATTGPQVKRADEWKDPWRRSKSPKKKLGVSVSPSRARRRRKTSASSASASNSSRSSSRSSSYSGSGSSRSRSRSSSYSSYSSRSSRHSSFSGSRSRSRSFSSSPSPSPTPSPHRPSIRTKGEPAPPPGKAGEKSVKKPAPPPAPPQATKTTAPVPEPTKPGDPREARRKERPARTPPRRRTLSGSGSGSGSSYSGSSSRSRSLSVSSVSSVSSATSSSSSAHSVDSEDMYADLASPVSSASSRSPAPAQTRKEKGKSKKEDGVKEEKRKRDSSTQPPKSAKPPAGGKSSQQPSTPQQAPPGQPQQGTFVAHKEIKLTLLNKAADKGSRKRYEPSDKDRQSPPPAKRPNTSPDRGSRDRKSGGRLGSPKPERQRGQNSKAPAAPADRKRQLSPQSKSSSKVTSVPGKASDPGAASTKSGKASTLSRREELLKQLKAVEDAIARKRAKIPGKA
Consider B1, for which the “Difference (log2), untreated vs GFP” value in the assay with GFP-14-3-3β (setting [2]) was 1.571 log2. For the same molecule, the “Difference (log2), PP1 vs untreated” value in assay [1] (setting [3]) is recorded as -1.028 log2.

B2: SAMD4B (protein, UniProt Q5PRF9 1-694, looked up)
Protein Smaug homolog 2: MMFRDQVGILAGWFKGWNECEQTVALLSLLKRVTRTQARFLQLCLEHSLADCNDIHLLESEANSAAIVSQWQQESKEKVVSLLLSHLPLLQPGNTEAKSEYMRLLQKVLAYSIESNAFIEESRQLLSYALIHPATTLEDRNALALWLSHLEERLASGFRSRPEPSYHSRQGSDEWGGPAELGPGEAGPGWQDKPPRENGHVPFHPSSSVPPAINSIGSNANTGLPCQIHPSPLKRSMSLIPTSPQVPGEWPSPEELGARAAFTTPDHAPLSPQSSVASSGSEQTEEQGSSRNTFQEDGSGMKDVPSWLKSLRLHKYAALFSQMSYEEMMTLTEQHLESQNVTKGARHKIALSIQKLRERQSVLKSLEKDVLEGGNLRNALQELQQIIITPIKAYSVLQATVAAATTTPTAKDGAPGEPPLPGAEPPLAHPGTDKGTEAKDPPAVENYPPPPAPAPTDGSEPAPAPVADGDIPSQFTRVMGKVCTQLLVSRPDEENITSYLQLIEKCLTHEAFTETQKKRLLSWKQQVLKLLRTFPRKAALEMQNYRQQKGWAFGSNSLPIAGSVGMGVARRTQRQFPMPPRALPPGRMGLLSPSGIGGVSPRHALTSPSLGGQGRQNLWFANPGGSNSMPSQSRSSVQRTHSLPVHSSPQAILMFPPDCPVPGPDLEINPTLESLCLSMTEHALGDGTDKTSTI
With B2, the “Difference (log2), untreated vs GFP” value in the assay on GFP-14-3-3β (setting [2]) was 4.238 log2. The “Difference (log2), PP1 vs untreated” value in assay [1] (setting [3]) is given as -1.071 log2.

B3: EIF2A (protein, UniProt Q9BY44 1-585, looked up)
Eukaryotic translation …: MAPSTPLLTVRGSEGLYMVNGPPHFTESTVFPRESGKNCKVCIFSKDGTLFAWGNGEKVNIISVTNKGLLHSFDLLKAVCLEFSPKNTVLATWQPYTTSKDGTAGIPNLQLYDVKTGTCLKSFIQKKMQNWCPSWSEDETLCARNVNNEVHFFENNNFNTIANKLHLQKINDFVLSPGPQPYKVAVYVPGSKGAPSFVRLYQYPNFAGPHAALANKSFFKADKVTMLWNKKATAVLVIASTDVDKTGASYYGEQTLHYIATNGESAVVQLPKNGPIYDVVWNSSSTEFCAVYGFMPAKATIFNLKCDPVFDFGTGPRNAAYYSPHGHILVLAGFGNLRGQMEVWDVKNYKLISKPVASDSTYFAWCPDGEHILTATCAPRLRVNNGYKIWHYTGSILHKYDVPSNAELWQVSWQPFLDGIFPAKTITYQAVPSEVPNEEPKVATAYRPPALRNKPITNSKLHEEEPPQNMKPQSGNDKPLSKTALKNQRKHEAKKAAKQEARSDKSPDLAPTPAPQSTPRNTVSQSISGDPEIDKKIKNLKKKLKAIEQLKEQAATGKQLEKNQLEKIQKETALLQELEDLELGI
In the case of B3, the “Difference (log2), untreated vs GFP” value in the assay on GFP-14-3-3β (log2 difference, pairwise comparison untreated vs GFP, label-free quantification, 3 replicates each) was -1.244. Also, the “Difference (log2), PP1 vs untreated” value in assay [1] (log2 difference, pairwise comparison PP1 vs untreated, label-free quantification, 3 replicates each) worked out at 1.627.

B4: CENPV (protein, UniProt Q7Z7K6 1-275, looked up)
Centromere protein V: MRRSRSSAAAKLRGQKRSGASGASAAPAASAAAALAPSATRTRRSASQAGSKSQAVEKPPSEKPRLRRSSPRAQEEGPGEPPPPELALLPPPPPPPPTPATPTSSASNLDLGEQRERWETFQKRQKLTSEGAAKLLLDTFEYQGLVKHTGGCHCGAVRFEVWASADLHIFDCNCSICKKKQNRHFIVPASRFKLLKGAEHITTYTFNTHKAQHTFCKRCGVQSFYTPRSNPGGFGIAPHCLDEGTVRSMVTEEFNGSDWEKAMKEHKTIKNMSKE
Turning to B4, the “Difference (log2), untreated vs GFP” value in the assay on GFP-14-3-3β (setting [2]) was found to be 2.895 log2. The “Difference (log2), PP1 vs untreated” value in assay [1] (setting [3]) was -0.9888 log2.

B5: CORO1B (protein, UniProt Q9BR76 1-489, looked up)
Coronin-1B: MSFRKVVRQSKFRHVFGQPVKNDQCYEDIRVSRVTWDSTFCAVNPKFLAVIVEASGGGAFLVLPLSKTGRIDKAYPTVCGHTGPVLDIDWCPHNDEVIASGSEDCTVMVWQIPENGLTSPLTEPVVVLEGHTKRVGIIAWHPTARNVLLSAGCDNVVLIWNVGTAEELYRLDSLHPDLIYNVSWNHNGSLFCSACKDKSVRIIDPRRGTLVAEREKAHEGARPMRAIFLADGKVFTTGFSRMSERQLALWDPENLEEPMALQELDSSNGALLPFYDPDTSVVYVCGKGDSSIRYFEITEEPPYIHFLNTFTSKEPQRGMGSMPKRGLEVSKCEIARFYKLHERKCEPIVMTVPRKSDLFQDDLYPDTAGPEAALEAEEWVSGRDADPILISLREAYVPSKQRDLKISRRNVLSDSRPAMAPGSSHLGAPASTTTAADATPSGSLARAGEAGKLEEVMQELRALRALVKEQGDRICRLEEQLGRMENGDA
As for B5, the “Difference (log2), untreated vs GFP” value with GFP-14-3-3β (setting [2]) is given as 0.1576 log2. In addition, the “Difference (log2), PP1 vs untreated” value in assay [1] (setting [3]) is on record as -1.031 log2.

B6: TJP2 (protein, UniProt Q9UDY2 1-1190, looked up)
Tight junction protein 2: MPVRGDRGFPPRRELSGWLRAPGMEELIWEQYTVTLQKDSKRGFGIAVSGGRDNPHFENGETSIVISDVLPGGPADGLLQENDRVVMVNGTPMEDVLHSFAVQQLRKSGKVAAIVVKRPRKVQVAALQASPPLDQDDRAFEVMDEFDGRSFRSGYSERSRLNSHGGRSRSWEDSPERGRPHERARSRERDLSRDRSRGRSLERGLDQDHARTRDRSRGRSLERGLDHDFGPSRDRDRDRSRGRSIDQDYERAYHRAYDPDYERAYSPEYRRGARHDARSRGPRSRSREHPHSRSPSPEPRGRPGPIGVLLMKSRANEEYGLRLGSQIFVKEMTRTGLATKDGNLHEGDIILKINGTVTENMSLTDARKLIEKSRGKLQLVVLRDSQQTLINIPSLNDSDSEIEDISEIESNRSFSPEERRHQYSDYDYHSSSEKLKERPSSREDTPSRLSRMGATPTPFKSTGDIAGTVVPETNKEPRYQEDPPAPQPKAAPRTFLRPSPEDEAIYGPNTKMVRFKKGDSVGLRLAGGNDVGIFVAGIQEGTSAEQEGLQEGDQILKVNTQDFRGLVREDAVLYLLEIPKGEMVTILAQSRADVYRDILACGRGDSFFIRSHFECEKETPQSLAFTRGEVFRVVDTLYDGKLGNWLAVRIGNELEKGLIPNKSRAEQMASVQNAQRDNAGDRADFWRMRGQRSGVKKNLRKSREDLTAVVSVSTKFPAYERVLLREAGFKRPVVLFGPIADIAMEKLANELPDWFQTAKTEPKDAGSEKSTGVVRLNTVRQIIEQDKHALLDVTPKAVDLLNYTQWFPIVIFFNPDSRQGVKTMRQRLNPTSNKSSRKLFDQANKLKKTCAHLFTATINLNSANDSWFGSLKDTIQHQQGEAVWVSEGKMEGMDDDPEDRMSYLTAMGADYLSCDSRLISDFEDTDGEGGAYTDNELDEPAEEPLVSSITRSSEPVQHEESIRKPSPEPRAQMRRAASSDQLRDNSPPPAFKPEPPKAKTQNKEESYDFSKSYEYKSNPSAVAGNETPGASTKGYPPPVAAKPTFGRSILKPSTPIPPQEGEEVGESSEEQDNAPKSVLGKVKIFEKMDHKARLQRMQELQEAQNARIEIAQKHPDIYAVPIKTHKPDPGTPQHTSSRPPEPQKAPSRPYQDTRGSYGSDAEEEEYRQQLSEHSKRGYYGQSARYRDTEL
Turning to B6, the “Difference (log2), untreated vs GFP” value in the assay on GFP-14-3-3β (setting [2]) worked out at 5.699 log2. In addition, the “Difference (log2), PP1 vs untreated” value in assay [1] (setting [3]) is listed as -0.9629 log2.

B7: ACIN1 (protein, UniProt Q9UKV3 1-1341, looked up)
Apoptotic chromatin …: MWRRKHPRTSGGTRGVLSGNRGVEYGSGRGHLGTFEGRWRKLPKMPEAVGTDPSTSRKMAELEEVTLDGKPLQALRVTDLKAALEQRGLAKSGQKSALVKRLKGALMLENLQKHSTPHAAFQPNSQIGEEMSQNSFIKQYLEKQQELLRQRLEREAREAAELEEASAESEDEMIHPEGVASLLPPDFQSSLERPELELSRHSPRKSSSISEEKGDSDDEKPRKGERRSSRVRQARAAKLSEGSQPAEEEEDQETPSRNLRVRADRNLKTEEEEEEEEEEEEDDEEEEGDDEGQKSREAPILKEFKEEGEEIPRVKPEEMMDERPKTRSQEQEVLERGGRFTRSQEEARKSHLARQQQEKEMKTTSPLEEEEREIKSSQGLKEKSKSPSPPRLTEDRKKASLVALPEQTASEEETPPPLLTKEASSPPPHPQLHSEEEIEPMEGPAPAVLIQLSPPNTDADTRELLVSQHTVQLVGGLSPLSSPSDTKAESPAEKVPEESVLPLVQKSTLADYSAQKDLEPESDRSAQPLPLKIEELALAKGITEECLKQPSLEQKEGRRASHTLLPSHRLKQSADSSSSRSSSSSSSSSRSRSRSPDSSGSRSHSPLRSKQRDVAQARTHANPRGRPKMGSRSTSESRSRSRSRSRSASSNSRKSLSPGVSRDSSTSYTETKDPSSGQEVATPPVPQLQVCEPKERTSTSSSSVQARRLSQPESAEKHVTQRLQPERGSPKKCEAEEAEPPAATQPQTSETQTSHLPESERIHHTVEEKEEVTMDTSENRPENDVPEPPMPIADQVSNDDRPEGSVEDEEKKESSLPKSFKRKISVVSATKGVPAGNSDTEGGQPGRKRRWGASTATTQKKPSISITTESLKSLIPDIKPLAGQEAVVDLHADDSRISEDETERNGDDGTHDKGLKICRTVTQVVPAEGQENGQREEEEEEKEPEAEPPVPPQVSVEVALPPPAEHEVKKVTLGDTLTRRSISQQKSGVSITIDDPVRTAQVPSPPRGKISNIVHISNLVRPFTLGQLKELLGRTGTLVEEAFWIDKIKSHCFVTYSTVEEAVATRTALHGVKWPQSNPKFLCADYAEQDELDYHRGLLVDRPSETKTEEQGIPRPLHPPPPPPVQPPQHPRAEQREQERAVREQWAEREREMERRERTRSEREWDRDKVREGPRSRSRSRDRRRKERAKSKEKKSEKKEKAQEEPPAKLLDDLFRKTKAAPCIYWLPLTDSQIVQKEAERAERAKEREKRRKEQEEEEQKEREKEAERERNRQLEREKRREHSRERDRERERERERDRGDRDRDRERDRERGRERDRRDTKRHSRSRSRSTPVRDRGGRR
Turning to B7, the “Difference (log2), untreated vs GFP” value in the assay on GFP-14-3-3β (setting [2]) came out at 1.747 log2. Further, the “Difference (log2), PP1 vs untreated” value in assay [1] (setting [3]) is -1.001 log2.

The record behind these values is publication PMC7367873, “Dissecting the sequence determinants for dephosphorylation by the catalytic subunits of phosphatases PP1 and PP2A” (Nature Communications, 2020).
